According to US20120034160A1 (AbbVie / Abbott, published 2012):
Numbering of substitutions follows the chain as printed.

T1: Recombinant Human IL-17 (human, UniProt Q16552 20-155, limits assumed)
T1 sequence (looked up): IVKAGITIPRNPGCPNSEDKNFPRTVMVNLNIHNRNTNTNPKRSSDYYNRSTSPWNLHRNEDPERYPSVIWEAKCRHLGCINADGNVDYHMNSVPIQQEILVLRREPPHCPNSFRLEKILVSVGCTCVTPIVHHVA

T2: Recombinant Human IL-17 (human, UniProt Q16552 20-155, limits assumed)
T2 construct: bought reagent
T2 sequence (looked up): T1 sequence (looked up)

B1: AB273 (antibody, human IgG1, kappa, V domains shown)
VH: EVQLVQSGAEVKKPGSSVKVSCKASGYTFTDYEIHWVRQAPGQGLEWMGVNDPESGGTFYNQKFDGRVTLTADESTSTAYMELSSLRSEDTAVYYCTRYSKWDSFDGMDYWGQGTTVTVSS
VL: DIQMTQSPSSLSASVGDRVTITCRASSGIISYIDWFQQKPGKAPKRLIYATFDLASGVPSRFSGSGSGTDYTLTISSLQPEDFATYYCRQVGSYPETFGQGTKLEIKR
B2: DVD1272 (bispecific antibody, human IgG1, kappa)
heavy: not shown
light: DIQMTQSPSSLSASVGDRVTITCRASGNIHNYLTWYQQTPGKAPKLLIYNAKTLADGVPSRFSGSGSGTDYTFTISSLQPEDIATYYCQHFWSIPYTFGQGTKLQITRTVAAPEIVLTQSPDFQSVTPKEKVTITCRASQDIGSELHWYQQKPDQPPKLLIKYASHSTSGVPSRFSGSGSGTDFTLTINGLEAEDAGTYYCHQTDSLPYTFGPGTKVDIKRTVAAPSVFIFPPSDEQLKSGTASVVCLLNNFYPREAKVQWKVDNALQSGNSQESVTEQDSKDSTYSLSSTLTLSKADYEKHKVYACEVTHQGLSSPVTKSFNRGEC
notes: V1 wt hIgG1, V2 kappa; also called DVD1272H; DVD1272L
B3: DVD1282 (bispecific antibody, human IgG1, kappa)
heavy: not shown
light: B2 light with D141N, P156S, T168I, G197A, T204S, S206T, Y209H, P213Q
notes: V1 wt hIgG1, V2 kappa; also called DVD1282H; DVD1282L
B4: DVD1284 (bispecific antibody, human IgG1, kappa)
heavy: not shown
light: B2 light with D141N, P156S, T168I, G197A, T204S, S206T, Y209H, P213Q
notes: V1 wt hIgG1, V2 kappa; also called DVD1284H; DVD1284L
B5: DVD1274 (bispecific antibody, human IgG1, kappa)
heavy: not shown
light: B2 light
notes: V1 wt hIgG1, V2 kappa; also called DVD1274H; DVD1274L
B6: DVD1266 (bispecific antibody, human IgG1, kappa)
heavy: not shown
light: DTQVTQSPSSLSASVGDRVTITCITSTDIDVDMNWYQQKPGKPPKLLISQGNTLRPGVPSRFSSSGSGTDFTFTISSLQPEDFATYYCLQSDNLPLTFGQGTKLEIKRTVAAPDIQMTQSPSSLSASVGDRVTITCRASSGIISYIDWFQQKPGKAPKRLIYATFDLASGVPSRFSGSGSGTDYTLTISSLQPEDFATYYCRQVGSYPETFGQGTKLEIKRTVAAPSVFIFPPSDEQLKSGTASVVCLLNNFYPREAKVQWKVDNALQSGNSQESVTEQDSKDSTYSLSSTLTLSKADYEKHKVYACEVTHQGLSSPVTKSFNRGEC
notes: DVD-Ig, outer AB270, inner AB273, linker set 1; V1 wt hIgG1, V2 kappa; also called DVD1266H; DVD1266L
B7: DVD1270 (bispecific antibody, human IgG1, kappa)
heavy: not shown
light: B6 light with D1E, Q3T
notes: DVD-Ig, outer AB272, inner AB273, linker set 1; V1 wt hIgG1, V2 kappa; also called DVD1270H; DVD1270L
B8: DVD1276 (bispecific antibody, human IgG1, kappa)
heavy: not shown
light: DTQVTQSPSSLSASVGDRVTITCITSTDIDVDMNWYQQKPGKPPKLLISQGNTLRPGVPSRFSSSGSGTDFTFTISSLQPEDFATYYCLQSDNLPLTFGQGTKLEIKRTVAAPEIVLTQSPDFQSVTPKEKVTITCRASQDIGSELHWYQQKPDQPPKLLIKYASHSTSGVPSRFSGSGSGTDFTLTINGLEAEDAGTYYCHQTDSLPYTFGPGTKVDIKRTVAAPSVFIFPPSDEQLKSGTASVVCLLNNFYPREAKVQWKVDNALQSGNSQESVTEQDSKDSTYSLSSTLTLSKADYEKHKVYACEVTHQGLSSPVTKSFNRGEC
notes: DVD-Ig, outer AB270, inner AB274, linker set 1; V1 wt hIgG1, V2 kappa; also called DVD1276H; DVD1276L
B9: DVD1290 (bispecific antibody, human IgG1, kappa)
heavy: not shown
light: B8 light with D1E, Q3T, D141N, P156S, T168I, G197A, T204S, S206T, Y209H, P213Q
notes: DVD-Ig, outer AB272, inner AB275, linker set 1; V1 wt hIgG1, V2 kappa; also called DVD1290H; DVD1290L
B10: DVD1280 (bispecific antibody, human IgG1, kappa)
heavy: not shown
light: B8 light with D1E, Q3T
notes: DVD-Ig, outer AB272, inner AB274, linker set 1; V1 wt hIgG1, V2 kappa; also called DVD1280H; DVD1280L
B11: DVD1286 (bispecific antibody, human IgG1, kappa)
heavy: not shown
light: B8 light with D141N, P156S, T168I, G197A, T204S, S206T, Y209H, P213Q
notes: DVD-Ig, outer AB270, inner AB275, linker set 1; V1 wt hIgG1, V2 kappa; also called DVD1286H; DVD1286L
B12: DVD1278 (bispecific antibody, human IgG1, kappa)
heavy: not shown
light: DTVVTQSPAFLSVTPGEKVTITCITSTDIDVDMNWYQQKPDQPPKLLISQGNTLRPGVPSRFSSSGSGTDFTFTISSLEAEDAATYYCLQSDNLPLTFGQGTKLEIKRTVAAPEIVLTQSPDFQSVTPKEKVTITCRASQDIGSELHWYQQKPDQPPKLLIKYASHSTSGVPSRFSGSGSGTDFTLTINGLEAEDAGTYYCHQTDSLPYTFGPGTKVDIKRTVAAPSVFIFPPSDEQLKSGTASVVCLLNNFYPREAKVQWKVDNALQSGNSQESVTEQDSKDSTYSLSSTLTLSKADYEKHKVYACEVTHQGLSSPVTKSFNRGEC
notes: DVD-Ig, outer AB271, inner AB274, linker set 1; V1 wt hIgG1, V2 kappa; also called DVD1278H; DVD1278L
B13: DVD1288 (bispecific antibody, human IgG1, kappa)
heavy: not shown
light: B12 light with D141N, P156S, T168I, G197A, T204S, S206T, Y209H, P213Q
notes: DVD-Ig, outer AB271, inner AB275, linker set 1; V1 wt hIgG1, V2 kappa; also called DVD1288H; DVD1288L
B14: DVD1628 (bispecific antibody, human IgG1, kappa)
heavy: not shown
light: DIQMTQSPSSLSASVGDRVTITCRASSGIISYIDWFQQKPGKAPKRLIYATFDLASGVPSRFSGSGSGTDYTLTISSLQPEDFATYYCRQVGSYPETFGQGTKLEIKRTVAAPETTVTQSPSSLSASVGDRVTITCITSTDIDVDMNWYQQKPGKPPKLLISQGNTLRPGVPSRFSSSGSGTDFTFTISSLQPEDFATYYCLQSDNLPLTFGQGTKLEIKRTVAAPSVFIFPPSDEQLKSGTASVVCLLNNFYPREAKVQWKVDNALQSGNSQESVTEQDSKDSTYSLSSTLTLSKADYEKHKVYACEVTHQGLSSPVTKSFNRGEC
notes: DVD-Ig, outer AB273, inner AB272, linker set 3; V1 wt hIgG1, V2 kappa; also called DVD1628H; DVD1628L
B15: DVD1626 (bispecific antibody, human IgG1, kappa)
heavy: not shown
light: DIQMTQSPSSLSASVGDRVTITCRASSGIISYIDWFQQKPGKAPKRLIYATFDLASGVPSRFSGSGSGTDYTLTISSLQPEDFATYYCRQVGSYPETFGQGTKLEIKRTVAAPDTVVTQSPAFLSVTPGEKVTITCITSTDIDVDMNWYQQKPDQPPKLLISQGNTLRPGVPSRFSSSGSGTDFTFTISSLEAEDAATYYCLQSDNLPLTFGQGTKLEIKRTVAAPSVFIFPPSDEQLKSGTASVVCLLNNFYPREAKVQWKVDNALQSGNSQESVTEQDSKDSTYSLSSTLTLSKADYEKHKVYACEVTHQGLSSPVTKSFNRGEC
notes: DVD-Ig, outer AB273, inner AB271, linker set 3; V1 wt hIgG1, V2 kappa; also called DVD1626H; DVD1626L
B16: DVD1630 (bispecific antibody, human IgG1, kappa)
heavy: not shown
light: EIVLTQSPDFQSVTPKEKVTITCRASQDIGSELHWYQQKPDQPPKLLIKYASHSTSGVPSRFSGSGSGTDFTLTINGLEAEDAGTYYCHQTDSLPYTFGPGTKVDIKRTVAAPDIQMTQSPSSLSASVGDRVTITCRASGNIHNYLTWYQQTPGKAPKLLIYNAKTLADGVPSRFSGSGSGTDYTFTISSLQPEDIATYYCQHFWSIPYTFGQGTKLQITRTVAAPSVFIFPPSDEQLKSGTASVVCLLNNFYPREAKVQWKVDNALQSGNSQESVTEQDSKDSTYSLSSTLTLSKADYEKHKVYACEVTHQGLSSPVTKSFNRGEC
notes: V1 wt hIgG1, V2 kappa; also called DVD1630H; DVD1630L
B17: DVD1632 (bispecific antibody, human IgG1, kappa)
heavy: not shown
light: B16 light
notes: V1 wt hIgG1, V2 kappa; also called DVD1632H; DVD1632L

These binders were tested against T1, Recombinant Human IL-17 (assay: cell-based or functional assay).

IL-17 Neutralization Assay EC50	Binder
0.0161 nM	B1

What follows are binders tested against T3, Recombinant Human IL-1β (human, UniProt P01584 117-269) (assay: Biacore SPR; N-terminal VD).
T3 construct: bought reagent; also called IL-1B
Procedure, shortened: (§1)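 Captured antibody or DVD-Ig bound antigen (10−200 nM) in HBS-EP at 25° C. KD = koff/kon from a 1:1 global fit.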

Kd	koff	kon	Binder
0.03 nM	4.5e-05 s⁻¹	1.5e+06 M⁻¹ s⁻¹	B2
0.043 nM	7.2e-05 s⁻¹	1.7e+06 M⁻¹ s⁻¹	B3
0.017 nM	1.9e-05 s⁻¹	1.1e+06 M⁻¹ s⁻¹	B4
0.031 nM	4e-05 s⁻¹	1.3e+06 M⁻¹ s⁻¹	B5
0.077 nM	0.00046 s⁻¹	6e+06 M⁻¹ s⁻¹	B6
0.1 nM	0.00054 s⁻¹	5.3e+06 M⁻¹ s⁻¹	B7
0.082 nM	0.00045 s⁻¹	5.6e+06 M⁻¹ s⁻¹	B8
0.086 nM	0.00065 s⁻¹	7.5e+06 M⁻¹ s⁻¹	B9
0.08 nM	0.00063 s⁻¹	7.9e+06 M⁻¹ s⁻¹	B10
0.07 nM	0.0005 s⁻¹	7.2e+06 M⁻¹ s⁻¹	B11
0.069 nM	0.00047 s⁻¹	6.9e+06 M⁻¹ s⁻¹	B12
0.076 nM	0.00046 s⁻¹	6.1e+06 M⁻¹ s⁻¹	B13

The binders below were run against T2, Recombinant Human IL-17 (assay: Biacore SPR; N-terminal VD).
Procedure, shortened: as §1

Kd	koff	kon	Binder
0.0055 nM	2.2e-05 s⁻¹	4e+06 M⁻¹ s⁻¹	B14
0.0034 nM	1.6e-05 s⁻¹	4.8e+06 M⁻¹ s⁻¹	B15
0.0045 nM	1.6e-05 s⁻¹	3.4e+06 M⁻¹ s⁻¹	B16
0.005 nM	1.6e-05 s⁻¹	3.2e+06 M⁻¹ s⁻¹	B17

These binders were tested against T3, Recombinant Human IL-1β (assay: Biacore SPR; C-terminal VD).
Procedure, shortened: as §1

Kd	koff	kon	Binder
1 nM	0.00049 s⁻¹	490000 M⁻¹ s⁻¹	B14
1 nM	0.00047 s⁻¹	470000 M⁻¹ s⁻¹	B15
0.45 nM	7.6e-05 s⁻¹	170000 M⁻¹ s⁻¹	B16
0.42 nM	4.7e-05 s⁻¹	110000 M⁻¹ s⁻¹	B17
